# Source: patent publication US20220380459A1 (DRAGONFLY THERAPEUTICS, published 2022)
# Residue numbers refer to the chain shown, from its start.
# B1: A49-F3′-TriNKET-I07 (bispecific antibody, human IgG1, kappa)
# chain: DIQMTQSPSTLSASVGDRVTITCRASQSISSWLAWYQQKPGKAPKLLIYEASSLESGVPSRFSGSGSGTEFTLTISSLQPDDFATYYCQQSQSYPPITFGCGTKVEIKGGGGSGGGGSGGGGSGGGGSEVQLVESGGGLVQPGGSLRLSCAASGFTFGSYWMSWVRQAPGKCLEWVATIKQDGSEKSYVDSVKGRFTISRDNAKNSLYLQMNSLRAEDTAVYYCARPLNAGELDVWGQGTMVTVSSASDKTHTCPPCPAPELLGGPSVFLFPPKPKDTLMISRTPEVTCVVVDVSHEDPEVKFNWYVDGVEVHNAKTKPREEQYNSTYRVVSVLTVLHQDWLNGKEYKCKVSNKALPAPIEKTISKAKGQPREPRVYTLPPCRDELTKNQVSLTCLVKGFYPSDIAVEWESNGQPENNYKTTPPVLVSDGSFTLYSKLTVDKSRWQQGNVFSCSVMHEALHNHYTQKSLSLSPG
# heavy: EVQLVESGGGLVKPGGSLRLSCAASGFTFSSYSMNWVRQAPGKGLEWVSSISSSSSYIYYADSVKGRFTISRDNAKNSLYLQMNSLRAEDTAVYYCARGAPMGAAAGWFDPWGQGTLVTVSSASTKGPSVFPLAPSSKSTSGGTAALGCLVKDYFPEPVTVSWNSGALTSGVHTFPAVLQSSGLYSLSSVVTVPSSSLGTQTYICNVNHKPSNTKVDKKVEPKSCDKTHTCPPCPAPELLGGPSVFLFPPKPKDTLMISRTPEVTCVVVDVSHEDPEVKFNWYVDGVEVHNAKTKPREEQYNSTYRVVSVLTVLHQDWLNGKEYKCKVSNKALPAPIEKTISKAKGQPREPQVCTLPPSRDELTENQVSLTCLVKGFYPSDIAVEWESNGQPENNYKTTPPVLDSDGSFFLYSWLTVDKSRWQQGNVFSCSVMHEALHNHYTQKSLSLSPG
# light: DIQMTQSPSSVSASVGDRVTITCRASQGISSWLAWYQQKPGKAPKLLIYAASSLQSGVPSRFSGSGSGTDFTLTISSLQPEDFATYYCQQGVSFPRTFGGGTKVEIKRTVAAPSVFIFPPSDEQLKSGTASVVCLLNNFYPREAKVQWKVDNALQSGNSQESVTEQDSKDSTYSLSSTLTLSKADYEKHKVYACEVTHQGLSSPVTKSFNRGEC
# notes: trispecific: I07 scFv-Fc (CD33), A49 VH-CH1-Fc and A49 VL-CL (NKG2D Fab), heterodimeric IgG1 Fc (CD16); also called TriNKET derivative of I07 mAb
# B2: A49.G59 (bispecific antibody)
# NKG2D-binding VH: EVQLVESGGGLVKPGGSLRLSCAASGFTFSSYSMNWVRQAPGKGLEWVSSISSSSSYIYYADSVKGRFTISRDNAKNSLYLQMNSLRAEDTAVYYCARGAPMGAAAGWFDPWGQGTLVTVSS
# NKG2D-binding VL: DIQMTQSPSSVSASVGDRVTITCRASQGISSWLAWYQQKPGKAPKLLIYAASSLQSGVPSRFSGSGSGTDFTLTISSLQPEDFATYYCQQGVSFPRTFGGGTKVEIK
# CD33-binding VH: EVQLVESGGGLVQPGGSLRLSCAASGFTFSSYGMSWVRQAPGKGLEWVANIKQDGSEKYYVDSVKGRFTISRDNAKNSLYLQMNSLRAEDTAVYYCAREGGPYYDSSGYFVYYGMDVWGQGTTVTVSS
# CD33-binding VL: DIQMTQSPSTLSASVGDRVTITCRASQSISSWLAWYQQKPGKAPKLLIYDASSLESGVPSRFSGSGSGTEFTLTISSLQPDDFATYYCQQYESFPTFGGGTKVEIK
# B3: A49.H76 (bispecific antibody)
# NKG2D-binding VH: B2 NKG2D-binding VH
# NKG2D-binding VL: B2 NKG2D-binding VL
# CD33-binding VH: EVQLLESGGGLVQPGGSLRLSCAASGFTFSKYTMSWVRQAPGKGLEWVSAIVGSGESTYFADSVKGRFTISRDNSKNTLYLQMNSLRAEDTAVYYCAREGGPYYDSSGYFVYYGMDVWGQGTTVTVSS
# CD33-binding VL: B2 CD33-binding VL with D50K, E92D, S93D, F94L
# B4: A49.I07 (bispecific antibody)
# NKG2D-binding VH: B2 NKG2D-binding VH
# NKG2D-binding VL: B2 NKG2D-binding VL
# CD33-binding VH: EVQLVESGGGLVQPGGSLRLSCAASGFTFGSYWMSWVRQAPGKGLEWVATIKQDGSEKSYVDSVKGRFTISRDNAKNSLYLQMNSLRAEDTAVYYCARPLNAGELDVWGQGTMVTVSS
# CD33-binding VL: DIQMTQSPSTLSASVGDRVTITCRASQSISSWLAWYQQKPGKAPKLLIYEASSLESGVPSRFSGSGSGTEFTLTISSLQPDDFATYYCQQSQSYPPITFGGGTKVEIK
# B5: A49.I35 (bispecific antibody)
# NKG2D-binding VH: B2 NKG2D-binding VH
# NKG2D-binding VL: B2 NKG2D-binding VL
# CD33-binding VH: QLQLQESGPGLVKPSETLSLTCTVSGGSISSTDYYWGWIRQPPGKGLEWIGSIGYSGTYYNPSLKSRVTISVDTSKNQFSLKLSSVTAADTAVYYCARETAHDVHGMDVWGQGTTVTVSS
# CD33-binding VL: EIVLTQSPATLSLSPGERATLSCRASHSVYSYLAWYQQKPGQAPRLLIYDASNRATGIPARFSGSGSGTDFTLTISSLEPEDFAVYYCQQYDNLPTFGGGTKVEIK
# B6: C26.G59 (bispecific antibody)
# NKG2D-binding VH: QVQLQQWGAGLLKPSETLSLTCAVYGGSFSGYYWSWIRQPPGKGLEWIGEIDHSGSTNYNPSLKSRVTISVDTSKNQFSLKLSSVTAADTAVYYCARARGPWSFDPWGQGTLVTVSS
# NKG2D-binding VL: B2 NKG2D-binding VL with S10T, V11L, G28S, A50K, Q55E, D70E, E81D, G91Y, V92G, R96I
# CD33-binding VH: B2 CD33-binding VH
# CD33-binding VL: B2 CD33-binding VL
# B7: C26.H76 (bispecific antibody)
# NKG2D-binding VH: B6 NKG2D-binding VH
# NKG2D-binding VL: B2 NKG2D-binding VL with S10T, V11L, G28S, A50K, Q55E, D70E, E81D, G91Y, V92G, R96I
# CD33-binding VH: B3 CD33-binding VH
# CD33-binding VL: B2 CD33-binding VL with D50K, E92D, S93D, F94L
# B8: C26.I07 (bispecific antibody)
# NKG2D-binding VH: B6 NKG2D-binding VH
# NKG2D-binding VL: B2 NKG2D-binding VL with S10T, V11L, G28S, A50K, Q55E, D70E, E81D, G91Y, V92G, R96I
# CD33-binding VH: B4 CD33-binding VH
# CD33-binding VL: B4 CD33-binding VL
# B9: C26.I35 (bispecific antibody)
# NKG2D-binding VH: B6 NKG2D-binding VH
# NKG2D-binding VL: B2 NKG2D-binding VL with S10T, V11L, G28S, A50K, Q55E, D70E, E81D, G91Y, V92G, R96I
# CD33-binding VH: B5 CD33-binding VH
# CD33-binding VL: B5 CD33-binding VL
# B10: A40.G59 (bispecific antibody)
# NKG2D-binding VH: B6 NKG2D-binding VH
# NKG2D-binding VL: B2 CD33-binding VL with S30G, D50K, E92H, P95Y
# CD33-binding VH: B2 CD33-binding VH
# CD33-binding VL: B2 CD33-binding VL
# B11: F47.G59 (bispecific antibody)
# NKG2D-binding VH: B6 NKG2D-binding VH
# NKG2D-binding VL: B2 CD33-binding VL with D50K, E92D, S93T, P95I
# CD33-binding VH: B2 CD33-binding VH
# CD33-binding VL: B2 CD33-binding VL
# B12: A40.H76 (bispecific antibody)
# NKG2D-binding VH: B6 NKG2D-binding VH
# NKG2D-binding VL: B2 CD33-binding VL with S30G, D50K, E92H, P95Y
# CD33-binding VH: B3 CD33-binding VH
# CD33-binding VL: B2 CD33-binding VL with D50K, E92D, S93D, F94L
# B13: F47.H76 (bispecific antibody)
# NKG2D-binding VH: B6 NKG2D-binding VH
# NKG2D-binding VL: B2 CD33-binding VL with D50K, E92D, S93T, P95I
# CD33-binding VH: B3 CD33-binding VH
# CD33-binding VL: B2 CD33-binding VL with D50K, E92D, S93D, F94L
# Target: T1, human CD33 expressed on cells (human, UniProt P20138 18-364)
# T1 construct: endogenous CD33 of human AML cell lines and blood monocytes; also called cell-expressed CD33 (Molm-13, Mv4-11, monocytes)
# T1 sequence (P20138 18-364): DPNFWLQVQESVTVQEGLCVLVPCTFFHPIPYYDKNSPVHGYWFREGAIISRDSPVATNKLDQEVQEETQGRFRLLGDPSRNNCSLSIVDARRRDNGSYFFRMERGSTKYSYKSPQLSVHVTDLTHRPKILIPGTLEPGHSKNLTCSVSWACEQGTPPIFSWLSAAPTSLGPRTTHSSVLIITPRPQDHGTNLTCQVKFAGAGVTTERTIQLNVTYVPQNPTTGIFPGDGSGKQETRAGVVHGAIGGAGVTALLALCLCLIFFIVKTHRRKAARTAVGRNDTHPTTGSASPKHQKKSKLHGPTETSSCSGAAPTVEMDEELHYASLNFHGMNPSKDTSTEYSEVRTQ
# Experiment: flow cytometry on Molm-13 cells, fluorophore-conjugated anti-human IgG secondary antibody, MFI as fold over background (FOB)
# Experimental: (§1) The cells were analyzed by flow cytometry, and fold over background values were calculated by normalizing binding MFI to the MFI of a control group in which the cells were incubated with the secondary antibody only.
row,Binder,EC50 (read off the curve) [µg/mL]
1,B1,~5

# Target: T1, human CD33 expressed on cells
# Experiment: flow cytometry on Mv4-11 cells, fluorophore-conjugated anti-human IgG secondary antibody, MFI as fold over background (FOB)
# Experimental: as §1
row,Binder,EC50 (read off the curve) [µg/mL]
1,B1,~2

# Target: T1, human CD33 expressed on cells
# Experiment: flow cytometry on Molm-13 cells, fluorophore-conjugated anti-human IgG secondary antibody, MFI as fold over background (FOB)
# Remark: another data set of the same source
# Experimental: Binding of the TriNKET was detected using a fluorophore conjugated anti-human IgG secondary antibody. Cells were analyzed by flow cytometry, binding MFI to cell expressed CD33 was normalized to secondary antibody controls to obtain fold over background values.
row,Binder,binding result
1,B2,binds
2,B3,binds
3,B4,binds
4,B5,binds
5,B6,binds
6,B7,binds
7,B8,binds
8,B9,binds
9,B10,binds
10,B11,binds
11,B12,binds
12,B13,binds
